These results are taken from patent EP1073891B1, “METHOD OF PREDICTING RECEPTOR MODULATING ACTIVITY” (Duke University, priority 1998, dated 1999).

For experiment [1], the target named is T1, estrogen receptor beta (ERβ-VP16) (Homo sapiens, UniProt Q92731).
T1 construct: expressed in transfected cells
As to the kind of experiment: Mammalian two-hybrid, specificity of peptide-nuclear receptor interaction (Example 4.2). It is filed as cell-based. Particulars: mammalian two-hybrid (Fig. 8). An excerpt: (§1) Peptide sequences representing each class was fused to the DNA binding domain (DBD) of the yeast transcription factor Ga14. HepG2 cells were then transiently transfected with expression vectors for ERα-VP16 and the Gal4-peptide fusion proteins. In addition, a luciferase reporter construct under the control of 5 copies of a Ga14 upstream enhancer element was also transfected along with a pCMV-β galactosidase vector to normalize for transfection efficiency. Transfection of the Ga14 DBD alone is included as control. Cells were then induced with various ligands as indicated in the figure and assayed for luciferase activity and β galactosidase activity. Normalized response was obtained by dividing the luciferase activity by the β galactosidase activity.
(§2) The specificity of peptide-nuclear receptor interaction was analyzed (Fig. 8) using the mammalian two-hybrid system. Experimental design is the same as in figure 2 except that either progesterone receptor (PRB-VP16), estrogen receptor beta (ERβ-VP16), glucocorticoid receptor (GR-VP16) or thyroid receptor beta (TRβ-VP16) was tested.

Experiment [2] has as its target T2, progesterone receptor (PRB-VP16) (Homo sapiens, UniProt P06401).
T2 construct: expressed in transfected cells
T2 sequence (P06401 1-933): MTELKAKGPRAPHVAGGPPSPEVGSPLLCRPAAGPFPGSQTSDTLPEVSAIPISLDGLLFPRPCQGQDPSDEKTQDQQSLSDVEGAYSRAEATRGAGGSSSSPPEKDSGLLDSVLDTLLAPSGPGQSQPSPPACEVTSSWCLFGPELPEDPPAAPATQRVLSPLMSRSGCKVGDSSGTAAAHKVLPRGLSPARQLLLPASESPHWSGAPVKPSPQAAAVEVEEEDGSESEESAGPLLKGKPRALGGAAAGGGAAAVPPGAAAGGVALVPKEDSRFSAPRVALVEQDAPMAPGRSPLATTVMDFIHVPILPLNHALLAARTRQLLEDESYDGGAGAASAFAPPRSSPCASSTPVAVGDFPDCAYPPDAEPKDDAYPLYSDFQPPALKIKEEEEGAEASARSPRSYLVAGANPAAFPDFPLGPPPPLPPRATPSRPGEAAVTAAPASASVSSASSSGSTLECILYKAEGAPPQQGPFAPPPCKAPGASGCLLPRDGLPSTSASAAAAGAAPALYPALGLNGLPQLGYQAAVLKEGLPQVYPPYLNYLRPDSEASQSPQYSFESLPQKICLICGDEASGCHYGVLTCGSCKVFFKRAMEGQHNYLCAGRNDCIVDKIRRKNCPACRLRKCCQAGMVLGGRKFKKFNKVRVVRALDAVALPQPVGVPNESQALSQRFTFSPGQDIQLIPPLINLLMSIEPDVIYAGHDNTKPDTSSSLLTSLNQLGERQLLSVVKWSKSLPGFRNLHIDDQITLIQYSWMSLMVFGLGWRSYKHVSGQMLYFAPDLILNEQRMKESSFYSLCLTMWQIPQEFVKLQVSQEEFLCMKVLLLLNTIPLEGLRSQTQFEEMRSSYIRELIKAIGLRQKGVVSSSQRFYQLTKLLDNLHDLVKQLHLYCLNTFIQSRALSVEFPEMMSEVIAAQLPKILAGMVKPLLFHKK
The description is as above. As to conditions: mammalian two-hybrid (Fig. 8). It is filed as cell-based.
Excerpt: as §1, §2

Experiment [3] has as its target T3, glucocorticoid receptor (GR-VP16) (Homo sapiens, UniProt P04150).
T3 construct: expressed in transfected cells
T3 sequence (P04150 1-777): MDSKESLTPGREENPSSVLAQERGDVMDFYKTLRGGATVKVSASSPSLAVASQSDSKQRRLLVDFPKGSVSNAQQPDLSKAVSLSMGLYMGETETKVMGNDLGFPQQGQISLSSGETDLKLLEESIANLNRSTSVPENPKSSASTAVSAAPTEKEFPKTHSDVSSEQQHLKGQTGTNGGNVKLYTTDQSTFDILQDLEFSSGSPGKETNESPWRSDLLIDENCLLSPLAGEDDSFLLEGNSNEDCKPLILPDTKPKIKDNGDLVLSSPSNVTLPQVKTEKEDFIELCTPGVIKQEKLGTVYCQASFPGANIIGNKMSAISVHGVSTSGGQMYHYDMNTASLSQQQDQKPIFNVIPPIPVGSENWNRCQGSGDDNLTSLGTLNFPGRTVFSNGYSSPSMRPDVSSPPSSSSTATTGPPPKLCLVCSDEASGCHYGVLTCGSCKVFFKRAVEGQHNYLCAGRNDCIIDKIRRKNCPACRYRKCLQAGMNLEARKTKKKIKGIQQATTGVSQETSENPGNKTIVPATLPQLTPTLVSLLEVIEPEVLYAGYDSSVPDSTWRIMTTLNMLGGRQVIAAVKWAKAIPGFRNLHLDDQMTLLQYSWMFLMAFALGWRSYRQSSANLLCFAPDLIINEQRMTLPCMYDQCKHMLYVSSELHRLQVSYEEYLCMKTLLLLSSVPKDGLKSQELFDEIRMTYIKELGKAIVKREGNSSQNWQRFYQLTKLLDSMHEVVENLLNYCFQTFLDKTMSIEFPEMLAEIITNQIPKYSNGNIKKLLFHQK
Described as above. It is filed as cell-based. As to conditions: mammalian two-hybrid (Fig. 8).
Excerpt: as §1, §2

Another experiment deals with T4, ERα (Homo sapiens, UniProt P03372).
T4 sequence (P03372 1-595): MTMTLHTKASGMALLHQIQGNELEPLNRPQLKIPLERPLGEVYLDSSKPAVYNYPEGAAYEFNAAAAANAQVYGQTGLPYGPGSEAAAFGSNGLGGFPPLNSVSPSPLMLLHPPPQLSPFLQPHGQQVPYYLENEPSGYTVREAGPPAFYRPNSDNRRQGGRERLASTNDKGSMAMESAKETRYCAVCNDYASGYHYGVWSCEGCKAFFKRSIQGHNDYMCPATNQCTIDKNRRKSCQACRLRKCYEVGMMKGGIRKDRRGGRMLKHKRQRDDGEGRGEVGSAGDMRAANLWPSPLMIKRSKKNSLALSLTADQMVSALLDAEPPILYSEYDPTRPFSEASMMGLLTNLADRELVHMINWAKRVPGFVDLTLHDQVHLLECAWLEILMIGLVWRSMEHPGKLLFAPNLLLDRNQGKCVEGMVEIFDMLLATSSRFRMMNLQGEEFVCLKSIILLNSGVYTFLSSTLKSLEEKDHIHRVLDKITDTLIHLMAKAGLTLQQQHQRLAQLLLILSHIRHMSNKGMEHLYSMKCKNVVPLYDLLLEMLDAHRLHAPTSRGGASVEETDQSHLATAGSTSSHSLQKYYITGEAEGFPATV
As to the kind of experiment: Phage ELISA / fingerprint on ER immobilized on biotinylated ERE (Examples 2.3-2.5). As to conditions: for binding to ERα in the in vitro phage display system: presence or absence of estradiol / 4-OH-tamoxifen. It is filed as binding. On the set-up: purchased PanVera Corporation, Madison, WI.

T1 sequence (Q92731 whole entry, species assumed): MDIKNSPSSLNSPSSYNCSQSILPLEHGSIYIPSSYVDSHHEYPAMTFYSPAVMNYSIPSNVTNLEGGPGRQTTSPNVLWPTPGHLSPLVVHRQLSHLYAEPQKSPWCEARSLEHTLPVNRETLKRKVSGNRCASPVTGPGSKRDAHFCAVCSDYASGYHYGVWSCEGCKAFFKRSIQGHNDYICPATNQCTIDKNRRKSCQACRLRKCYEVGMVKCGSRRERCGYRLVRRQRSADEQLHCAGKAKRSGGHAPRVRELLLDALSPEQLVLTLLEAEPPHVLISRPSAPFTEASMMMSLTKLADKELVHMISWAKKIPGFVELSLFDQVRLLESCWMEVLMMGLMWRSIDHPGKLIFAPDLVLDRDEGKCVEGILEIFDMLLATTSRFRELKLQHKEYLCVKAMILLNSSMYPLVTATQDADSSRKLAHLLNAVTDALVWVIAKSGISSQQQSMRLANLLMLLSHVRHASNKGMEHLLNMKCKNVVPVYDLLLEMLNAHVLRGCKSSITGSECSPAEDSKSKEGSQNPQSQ

For SSLTSRDFGSWYASR [α II], the “interaction with ERβ” value in experiment [1] is “None of the receptors tested interact significantly”. The “interaction with PRB” value in experiment [2] is “None of the receptors tested interact significantly”. Also, in experiment [3], the “interaction with GR” value is reported as “None of the receptors tested interact significantly”. The “binding of the probe to ER α” value with ERα (in the presence of modulators) is recorded as “binds to ER α in the presence of any compound that binds to the estrogen receptor”. Also, in the experiment with ERα, the “binding to ERα in the in vitro phage display system” value was “bind in the presence of estradiol and 4-OH-tamoxifen, but not in their absence”.
For the sequence SSNHQSSRLIELLSR [α/β I], in experiment [1], the “interaction with ERβ” value was “interact with the αβ I peptide in the presence of the appropriate agonist”. Besides, the “interaction with PRB” value in experiment [2] is listed as “interact with the αβ I peptide in the presence of the appropriate agonist”. For the same sequence, the “interaction with GR” value in experiment [3] is reported as “interact with the αβ I peptide in the presence of the appropriate agonist”.
On to SSPGSREWFKDMLSR [α/β V], for which the “interaction with ERβ” value in experiment [1] is “bound ERβ only in the presence of tamoxifen”. Besides, the “interaction with PRB” value in experiment [2] was “able to associate with PRB in the presence of the PR antagonists RU 486 and ZK 98299”.
In the case of SSWDMHQFFWEGVSR [α/β III], the “interaction with ERβ” value in experiment [1] was “None of the receptors tested interact significantly”. The “interaction with PRB” value in experiment [2] is on record as “None of the receptors tested interact significantly”. The “interaction with GR” value in experiment [3] was “None of the receptors tested interact significantly”. Further, the “binding to ERα in the in vitro phage display system” value in the experiment with ERα is recorded as “binds to ERα only in the presence of 4-OH-tamoxifen”.
